In patent US6645498:

How the values were obtained:
[1] = molecular target: bovine serum albumin (bovine) (UniProt P02769); test: ELISA, BSA coated at 5 µg/ml, antibody at 10 µg/ml
[2] = molecular target: native GA733-2 antigen (human) (UniProt P16422); test: ELISA, antigen coated at 5 µg/ml, antibody at 10 µg/ml
[3] = molecular target: secreted recombinant GA733-2E antigen (human) (UniProt P16422); test: as above

UniProt P02769, sequence (P02769 25-607 limits assumed): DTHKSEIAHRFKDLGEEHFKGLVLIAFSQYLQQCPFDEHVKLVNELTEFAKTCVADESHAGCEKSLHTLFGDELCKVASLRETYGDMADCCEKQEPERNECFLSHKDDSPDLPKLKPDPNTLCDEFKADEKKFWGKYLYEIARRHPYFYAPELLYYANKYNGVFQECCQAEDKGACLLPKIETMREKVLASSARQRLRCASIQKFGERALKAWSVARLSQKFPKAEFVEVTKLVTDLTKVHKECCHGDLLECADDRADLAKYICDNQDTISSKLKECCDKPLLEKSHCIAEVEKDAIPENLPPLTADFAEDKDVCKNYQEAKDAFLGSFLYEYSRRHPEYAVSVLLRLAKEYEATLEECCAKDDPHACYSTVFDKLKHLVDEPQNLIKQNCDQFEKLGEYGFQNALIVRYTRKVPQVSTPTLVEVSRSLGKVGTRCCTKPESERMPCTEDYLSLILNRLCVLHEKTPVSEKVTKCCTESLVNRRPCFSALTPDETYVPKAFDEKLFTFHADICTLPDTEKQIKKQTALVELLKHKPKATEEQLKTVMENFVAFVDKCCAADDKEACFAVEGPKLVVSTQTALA

| Maximal optical density (at 405 nm) [1] [OD 405 nm] | Maximal optical density (at 405 nm) [2] [OD 405 nm] | Maximal optical density (at 405 nm) [3] [OD 405 nm] | Substance |
| --- | --- | --- | --- |
| 0 | 0 | 0 | Normal mouse IgG (antibody) |
| 0.02 | 0.86 | 1.3 | murine mAb GA733 (antibody) |
